Test results taken from paper PMC12238573 (Nature Communications, 2025).

Experiments:
[1] = biological target: Branchiostoma lanceolatum Class II PRPS (Branchiostoma lanceolatum); test: SEC; lysate of HEK293T cells with exogenously expressed Class II PRPS; fractions analysed by Western blot
[2] = biological target: the molecule itself; test: SEC; native whole-cell lysates of NIH3T3 AP1 KO and AP1/AP2 KO cells on Yarra SEC-2000 (1 kDa to 300 kDa); fractions analysed by Western blot

Question: Which stoichiometry N [1] does the source give for “Branchiostoma lanceolatum Class II PRPS (enzyme)” here?
Answer: The stoichiometry N was 2 to 6.

B1: PRPS2 (endogenous, mouse) (enzyme, UniProt Q9CS42 1-318, looked up)
chain: MPNIVLFSGSSHQDLSQRVADRLGLELGKVVTKKFSNQETSVEIGESVRGEDVYIIQSGCGEINDNLMELLIMINACKIASSSRVTAVIPCFPYARQDKKDKSRAPISAKLVANMLSVAGADHIITMDLHASQIQGFFDIPVDNLYAEPAVLQWIRENITEWRNCIIVSPDAGGAKRVTSIADRLNVEFALIHKERKKANEVDRMVLVGDVKDRVAILVDDMADTCGTICHAADKLLSAGATKVYAILTHGIFSGPAISRINSAAFEAVVVTNTIPQEDKMKHCSKIQVIDISMILAEAIRRTHNGESVSYLFSHVPL
notes: PRPS2, endogenous in mouse cells and tissues; also called P2; phosphoribosyl pyrophosphate synthetase 2; source: endogenous, NIH3T3 lysate (parental and CRISPR knockout lines); endogenous, C57BL/6 mouse liver, kidney and lung lysates
Question: How did the “stoichiometry N” value [2] turn out when B1 was run?
Answer: Its value is 2.
